Test results taken from US20040248202A1, “Bacteriorhodopsin/G protein-coupled receptor chimeras” (Wisconsin Alumni Research Foundation, priority 1998, published 2004).

Assays:
holotransducin = holotransducin (Homo sapiens, UniProt P11488); test: Effects of GDP concentration on the basal exchange of GTPγS by holotransducin; assay type: biochemical; conditions: 10 Minutes
Procedure: (§1) Chimeric or bacteriorhodopsin protein (1.7 uM) was incubated with 0.8 uM holotransducin with 10 nM ^35S radiolabeled GTPyS in buffer (20 mM Hepes (pH 7.5), 5 mM MgCl2, 1 mM DTT, 0.1 mM EDTA, and 20 mM NaCl). The reaction was incubated at 30° C. for 5, 10, 15 or 30 minutes. The reaction was terminated by transferring aliquots of the reaction mixture to nitrocellulose filters (0.45 um) prewetted with wash buffer (10 mM Tris (pH 7.5), 5 mM MgCl2, 100 mM NaC1, 0.1 mM EDTA) and placed on a vacuum manifold. The filters were then washed with 8 ml of wash buffer. The filters were then placed overnight in scintillation vials filled with 20 ml of scintillation cocktail. The activity of the vials was counted by a Liquid Scintillation Counter. For the BR-Rhodopsin loop 3 chimeras, in which the rhodopsin intracellular loop 3 replaced the native BR intracellular loop 3 and was fused from T157 on BR TM 5 to V167 on BR TM 6, activity was determined by an increased uptake of GTPS over basal exchange by transducin alone.
The next set of experiments was designed to measure the effects of GDP concentration on the basal exchange of GTPγS by holotransducin.

transducin = transducin (Homo sapiens, UniProt P11488); test: GTPyS exchange assay in the presence of high affinity analog or random peptide; assay type: biochemical; conditions: for % Inhibition of GTPγS Uptake (Controlled for Peptide inhibition of Basal Exchange): 3C; for % Inhibition of GTPγS Uptake (Controlled for Peptide inhibition of Basal Exchange) / Specific counts (Lattice Form) / SPECIFIC COUNTS: (Lattice Form): 10 Minutes
Sequence of transducin (P11488 2-350 limits assumed): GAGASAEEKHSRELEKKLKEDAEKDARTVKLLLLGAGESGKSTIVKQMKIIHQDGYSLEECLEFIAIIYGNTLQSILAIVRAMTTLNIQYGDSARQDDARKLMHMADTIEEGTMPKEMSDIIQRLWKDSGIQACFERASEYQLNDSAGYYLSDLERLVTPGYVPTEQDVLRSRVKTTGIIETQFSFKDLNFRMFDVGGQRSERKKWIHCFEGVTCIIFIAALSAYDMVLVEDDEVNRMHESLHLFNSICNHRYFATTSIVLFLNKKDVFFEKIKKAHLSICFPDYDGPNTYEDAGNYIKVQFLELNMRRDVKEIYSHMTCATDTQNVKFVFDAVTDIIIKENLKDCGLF
Sequence of transducin (P62873 2-340 partner limits assumed): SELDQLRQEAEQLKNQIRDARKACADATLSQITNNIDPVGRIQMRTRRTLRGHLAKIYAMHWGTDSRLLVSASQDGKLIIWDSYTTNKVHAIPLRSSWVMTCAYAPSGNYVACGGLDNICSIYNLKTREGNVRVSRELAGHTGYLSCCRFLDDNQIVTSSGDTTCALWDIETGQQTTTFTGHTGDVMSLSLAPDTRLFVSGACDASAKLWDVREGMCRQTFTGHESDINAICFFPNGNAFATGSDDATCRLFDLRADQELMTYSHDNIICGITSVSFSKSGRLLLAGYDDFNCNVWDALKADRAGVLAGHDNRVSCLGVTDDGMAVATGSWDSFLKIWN
Sequence of transducin (P63211 2-71 partner limits assumed): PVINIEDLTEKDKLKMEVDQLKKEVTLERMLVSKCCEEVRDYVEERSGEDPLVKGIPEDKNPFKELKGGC
Procedure: as §1
The high affinity analog has the sequence V-L-E-D-L-K-S-C-G-L-F-G (SEQ ID NO:43) (J. Biol. Chem. 271 pp. 361-366, 1996).
The random peptide consists of the sequence S-S-V-F-L-V-V-D-R-S-R (SEQ ID NO:44).
The addition of the high affinity analog at a final concentration of 8 uM gave the following results.
The second inhibition experiment used 50 uM of the high affinity analog.

[1] = Basal Exchange (no chimera) + 8 uM peptide

Sequence of holotransducin (P11488 2-350 limits assumed): as the sequence (P11488 2-350 limits assumed) above
Sequence of holotransducin (P62873 2-340 partner limits assumed): as the sequence (P62873 2-340 partner limits assumed) above
Sequence of holotransducin (P63211 2-71 partner limits assumed): as the sequence (P63211 2-71 partner limits assumed) above

Row | Molecule | Specific counts (Lattice Form) (holotransducin; Basal Exchange + 10 uM GDP) [counts] | Specific counts (Lattice Form) (holotransducin; Basal Exchange + 50 uM GDP) [counts] | Specific counts (Lattice Form) (holotransducin; Basal Exchange + 100 uM GDP) [counts] | % Inhibition of GTPγS Uptake (Controlled for Peptide inhibition of Basal Exchange) (transducin; 8 uM peptide) [%] | % Inhibition of GTPγS Uptake (Controlled for Peptide inhibition of Basal Exchange) (transducin; 50 uM peptide) [%] | Specific counts (Lattice Form) (transducin; 3C + 8 uM peptide) [counts] | SPECIFIC COUNTS: (Lattice Form) (transducin; 3C + 50 uM peptide) [counts] | Specific counts (Lattice Form) (transducin; [1]) [counts] | SPECIFIC COUNTS: (Lattice Form) (transducin; Basal Exchange (no chimera) + 50 uM peptide) [counts] | Effect on chimera-enhanced GTP-GDP exchange (transducin; presence of peptide)
1 | Nc1nc2c(ncn2[C@@H]2O[C@H](COP(=O)(O)OP(=O)(O)O)[C@@H](O)[C@H]2O)c(=O)[nH]1 [GDP] | 22885 | 11061 | 7502 | – | – | – | – | – | – | –
2 | S-S-V-F-L-V-V-D-R-S-R (SSVFLVVDRSR) [Random peptide] | – | – | – | 5.8 | 30 | 47516 | 35568 | 23868 | – | –
3 | V-L-E-D-L-K-S-C-G-L-F-G (VLEDLKSCGLFG) [High affinity analog] | – | – | – | 23 | 70 | 42455 | 46892 | 23154 | 33888 | inhibited
